B1: WW domain-containing transcription regulator protein 1, residues 116 to 162; numbered along this chain, Q9GZV5 (parent)
chain: QSYDVTDELPLPPGWEMTFTATGQRYFLNHIEKITTWQDPRKAMNQP

Variants of: B1
Assay: abundance fitness (aPCA) (normalised: wild type 0, dead -1); higher = more abundant; growth selection in yeast, the domain comes from the species named
Settings: Homo sapiens

Abundance fitness, by site and new letter:
A21: T -0.039 | S -0.014 | W -0.448 | Y -0.299 | R -0.109
Y26: E -0.586 | K -0.506 | H -0.387 | S -0.54 | D -0.739 | T -0.409 | N -0.412 | A -0.397 | R -0.487 | I -0.409 | C -0.566 | G -0.661 | P -0.814 | F -0.265 | V -0.322 | W -0.587
R25: G -0.37 | K -0.016 | D -0.934 | Q -0.116 | Y -0.246 | F -0.451 | A -0.261 | E -0.26 | H -0.385 | M -0.232 | T -0.295 | N -0.448 | I -0.024 | S -0.203 | W -0.64
L28: A -0.143 | R -0.112 | G -0.583 | H -0.55 | F -0.335 | I 0.044 | D -0.909 | N -0.446 | S -0.205 | V 0.035 | C -0.16 | T -0.096 | Y -0.268 | P -0.697 | K 0.128 | W -0.426 | M 0.055
Q24: N -0.164 | Y -0.424 | C -0.305 | T -0.178 | S -0.174 | D 0.017 | G -0.286 | H -0.552 | I -0.226 | K -0.14 | M -0.489 | W -0.82 | F -0.623 | P -0.846 | V -0.12 | R -0.222 | E 0.185 | L -0.364 | A -0.124
H30: M -0.259 | W -0.378 | S -0.091 | I -0.412 | D -0.247 | L -0.344 | A -0.152 | N -0.088 | R -0.075 | G -0.3 | Y -0.338 | K -0.05 | T -0.106 | C -0.333 | F -0.484 | V -0.226 | E -0.167 | P -0.218 | Q -0.076
N29: P -1.11 | H -0.278 | M -1.02 | K -0.826 | A -0.919 | D -0.42 | F -1.01 | R -0.763 | S -0.357 | E -0.931 | Q -0.779 | W -0.965 | I -0.949 | T -0.847 | V -1.09 | C -1.04 | L -1.01
G23: M -0.875 | D -0.361 | C -0.79 | R -0.369 | I -0.917 | K -0.412 | P -0.827 | V -0.925 | H -0.476 | L -1.07 | T -0.918 | S -0.565 | Q -0.469 | W -0.964 | F -1.15
I31: V -0.094 | N -0.162 | P -0.331 | S -0.182 | L -0.375 | F -0.14 | G -0.273 | T -0.011 | W -0.08 | A -0.174 | R -0.06
T22: V -0.37 | M -0.277 | E -0.028 | A -0.092 | H -0.184 | K -0.087 | S -0.058 | P -0.557 | G -0.052 | N -0.086 | L -0.192 | W -0.357 | Q -0.141 | Y -0.422 | F -0.35 | C -0.033 | D 0.104
F27: T -0.793 | W -0.13 | A -0.777 | R -0.761 | P -0.946 | L -0.841 | C -0.825 | G -0.613 | S -0.579 | N -0.859 | Y -0.027 | Q -0.977 | M -0.904 | I -0.935 | H -0.707 | K -0.818
